In article PMC12172446, “Murine norovirus allosteric escape mutants mimic gut activation” (Journal of Virology, 2025):

B1: Murine norovirus MNV-1 capsid protein VP1, V339I escape mutant (in purified virions) (natural protein, murine norovirus (MNV-1, genotype GV.1), UniProt Q80J94 1-541, looked up)
chain: MRMSDGAAPKANGSEASGQDLVPAAVEQAVPIQPVAGAALAAPAAGQINQIDPWIFQNFVQCPLGEFSISPRNTPGEILFDLALGPGLNPYLAHLSAMYTGWVGNMEVQLVLAGNAFTAGKVVVALVPPYFPKGSLTTAQITCFPHVMCDVRTLEPIQLPLLDVRRVLWHATQDQEESMRLVCMLYTPLRTNSPGDESFVVSGRLLSKPAADFNFVYLTPPIERTIYRMVDLPVIQPRLCTHARWPAPVYGLLVDPSLPSNPQWQNGRVHVDGTLLGTTPISGSWVSCFAAEAAYKFQSGTGEVATFTLIEQDGSAYVPGDRAAPLGYPDFSGQLEIEIQTETTKTGDKLKVTTFEMILGPTTNADQAPYQGRVFASVTAAASLDLVDGRVRAVPRSIYGFQDTIPEYNDGLLVPLAPPIGPFLPGEVLLRFRTYMRQIDTADAAAEAIDCALPQEFVSWFASNAFTVQSEALLLRYRNTLTGQLLFECKLYNEGYIALSYSGSGPLTFPTDGIFEVVSWVPRLYQLASVGSLATGRMLKQ
notes: Capsid protein VP1 (~58 kDa; N-terminal, shell and protruding domains) of murine norovirus MNV-1, as it stands in the purified virion, with the escape mutation V339I on the C'D' loop; also called V339I mutant virus; apo V339I; source: BV-2 cells infected with the MNV-1 mutant; virions purified (PEG precipitation, ultracentrifugation, sucrose gradient); copies: 180
B2: Murine norovirus MNV-1 capsid protein VP1, D348E escape mutant (in purified virions) (natural protein, murine norovirus (MNV-1, genotype GV.1), UniProt Q80J94 1-541, looked up)
chain: MRMSDGAAPKANGSEASGQDLVPAAVEQAVPIQPVAGAALAAPAAGQINQIDPWIFQNFVQCPLGEFSISPRNTPGEILFDLALGPGLNPYLAHLSAMYTGWVGNMEVQLVLAGNAFTAGKVVVALVPPYFPKGSLTTAQITCFPHVMCDVRTLEPIQLPLLDVRRVLWHATQDQEESMRLVCMLYTPLRTNSPGDESFVVSGRLLSKPAADFNFVYLTPPIERTIYRMVDLPVIQPRLCTHARWPAPVYGLLVDPSLPSNPQWQNGRVHVDGTLLGTTPISGSWVSCFAAEAAYKFQSGTGEVATFTLIEQDGSAYVPGDRAAPLGYPDFSGQLEIEVQTETTKTGEKLKVTTFEMILGPTTNADQAPYQGRVFASVTAAASLDLVDGRVRAVPRSIYGFQDTIPEYNDGLLVPLAPPIGPFLPGEVLLRFRTYMRQIDTADAAAEAIDCALPQEFVSWFASNAFTVQSEALLLRYRNTLTGQLLFECKLYNEGYIALSYSGSGPLTFPTDGIFEVVSWVPRLYQLASVGSLATGRMLKQ
notes: Capsid protein VP1 (~58 kDa; N-terminal, shell and protruding domains) of murine norovirus MNV-1, as it stands in the purified virion, with the escape mutation D348E on the C'D' loop; also called D348E virus; apo D348E; source: BV-2 cells infected with the MNV-1 mutant; virions purified (PEG precipitation, ultracentrifugation, sucrose gradient); copies: 180

Molecular target: the molecule itself
Test: cryo-EM structure; purified virions, ~1 mg/mL, in 30 mM HEPES pH 7.4, 100 mM NaCl; nothing, CaCl2 or 10 mM GCDCA added (V339I), nothing added (D348E); icosahedral reconstruction of the capsid

Protein | binding result
B1 | binds
B2 | binds
